Experimental data as given in the supplement of paper PMC7877785.
± gives the uncertainty stated by the source.

Assay: self-splicing fitness, log relative to wild type (ln ratio); higher = more splicing; Tetrahymena group I intron in knt gene, E. coli kanamycin selection, DiMSum; sequences stand for … in CUCUCU…GGAGGGAAAAGUUAUCAGGCAUGCACCUGGUAGCUAGUCUUUAAACCAAUAGAUUGCAUCGGUUUAAAAGGCAAGACCGUCAAAUUGCGGGAAAGGGGUCAACAGCCGUUCAGUACCAAGUCUCAGGGGAAACUUUGAGAUGGCCUUGCAAAGGGUAUGGUAAUAAGCUGACGGACAUGGUCCUAACCACGCAGCCAAGUCCUAAGUCAACAGAUCUUCUGUUGAUAUGGAUGCAGUUCACAGACUAAAUGUCGGUCGGGGAAGAUGUAUUCUUCUCAUAAGAUAUAGUCGGACCUCUCCUUAAUGGGAGCUAGCGGAUGAAGUGAUGCAACACUGGAGCCGCUGGGAACUAAUUUGUAUGCGAAAGUAUAUUGAUUAGUUUUGGAGUACUCGUGGUCG
Method in brief: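 Colonies from six replicate transformations of E. coli BL21(DE3) were pooled and amplicon-sequenced on an Illumina HiSeq 2500. The library placed an intron with all eight P1ex-region nucleotides randomised inside the knt kanamycin-resistance gene on pET-22b(+), and cells grew overnight at 37°C or 30°C on LB agar with or without 25 μg/mL kanamycin (plus 100 μg/mL carbenicillin, 50 μM IPTG, 0.2% rhamnose). Fitness is the DiMSum error-weighted combination of wild-type-normalised replicate fold changes, kanamycin versus none.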

Sequence	self-splicing fitness (ln) (30 °C)	self-splicing fitness (ln) (37 °C)
GAUUAGCAAUAUUACGGCUC	0.285 ± 0.096	0.441 ± 0.12
UCUGAGCAAUAUUACGGGAG	-4.4 ± 0.36	-2.65 ± 0.29
AGUAAGCAAUAUUACGCGGU	-2.66 ± 0.24	-2.46 ± 0.29
CAACAGCAAUAUUACGCCCU	-1.96 ± 0.086	-1.24 ± 0.1
AACCAGCAAUAUUACGUUAG	-3.68 ± 0.11	-2.44 ± 0.11
GCGUAGCAAUAUUACGUGUA	-3.63 ± 0.21	-2.43 ± 0.12
ACAGAGCAAUAUUACGGGAG	-3.51 ± 0.28	-1.62 ± 0.21
CCACAGCAAUAUUACGUUCC	-4.24 ± 0.24	-2.84 ± 0.27
GGCAAGCAAUAUUACGGUGG	-2.24 ± 0.11	-1.81 ± 0.14
AUCCAGCAAUAUUACGCUCA	0.0746 ± 0.13	0.8 ± 0.17
GAGUAGCAAUAUUACGAUGG	-2.33 ± 0.3	-0.76 ± 0.28
UAGAAGCAAUAUUACGAUGG	-1.84 ± 0.097	-1.32 ± 0.12
AGUAAGCAAUAUUACGCAUU	-2.48 ± 0.15	-2.26 ± 0.18
GUCCAGCAAUAUUACGCAAU	-0.658 ± 0.071	0.419 ± 0.087
GGUGAGCAAUAUUACGUAGU	-3.37 ± 0.23	-2.1 ± 0.29
AUAGAGCAAUAUUACGCCUU	-1.66 ± 0.12	0.354 ± 0.16
AAUUAGCAAUAUUACGAUAC	-1.24 ± 0.36	-0.477 ± 0.21
ACGAAGCAAUAUUACGAGCG	-0.87 ± 0.075	-0.411 ± 0.12
GGAAAGCAAUAUUACGUGCC	-1.94 ± 0.19	-2.01 ± 0.25
GGGCAGCAAUAUUACGCGCA	-0.298 ± 0.13	-0.184 ± 0.13
GUGUAGCAAUAUUACGUUUG	-2.54 ± 0.27	-1.44 ± 0.28
CCAAAGCAAUAUUACGCUGC	-3.03 ± 0.17	-1.8 ± 0.18
UAUUAGCAAUAUUACGCAGA	-1.96 ± 0.28	-1.63 ± 0.23
CUGGAGCAAUAUUACGUCUU	-3.27 ± 0.39	
AUCGAGCAAUAUUACGUGAA	-2.75 ± 0.14	-1.83 ± 0.16

Sequence	self-splicing fitness (ln) (30 °C)	self-splicing fitness (ln) (37 °C)
CUUUAGCAAUAUUACGUAAA		-2.24 ± 0.28
GGUUAGCAAUAUUACGAUAG	-1.82 ± 0.28	-1.14 ± 0.32
GCAAAGCAAUAUUACGGAAU	-2.6 ± 0.1	-0.938 ± 0.11
AUAAAGCAAUAUUACGAUGG	-2.15 ± 0.13	-1.03 ± 0.18
ACACAGCAAUAUUACGCUUC		-3.08 ± 0.23
AAGAAGCAAUAUUACGUAGG	-2.09 ± 0.082	-1.14 ± 0.12
AAGUAGCAAUAUUACGGACA	-1.7 ± 0.12	-0.343 ± 0.12
AGUGAGCAAUAUUACGCCUA	-3 ± 0.3	-0.802 ± 0.18
CUAAAGCAAUAUUACGGGAA	-3.28 ± 0.2	-2.1 ± 0.17
UAUGAGCAAUAUUACGUUUU	-4.02 ± 0.32	-2.45 ± 0.23
AGUCAGCAAUAUUACGUUCA	-1.5 ± 0.099	-0.803 ± 0.081
GUGGAGCAAUAUUACGGUAG	-1.7 ± 0.16	-1.41 ± 0.31
CUCCAGCAAUAUUACGCAAG	-3.52 ± 0.26	-1.41 ± 0.18
UUUGAGCAAUAUUACGGCCG	-2.02 ± 0.35	
CAUGAGCAAUAUUACGUACG	-0.969 ± 0.074	0.257 ± 0.1
CGGGAGCAAUAUUACGGAUU	-3.51 ± 0.33	-1.27 ± 0.28
CGAUAGCAAUAUUACGACAU	-3.167 ± 0.021	-1.95 ± 0.035
UCCAAGCAAUAUUACGUUCU	-2.62 ± 0.1	-3.9 ± 0.29
CGAAAGCAAUAUUACGACCC	-1.42 ± 0.2	-0.478 ± 0.23
CCGUAGCAAUAUUACGUCAC	-1.02 ± 0.27	
UAGCAGCAAUAUUACGGUGU	-3.53 ± 0.15	-1.84 ± 0.15
CAGAAGCAAUAUUACGGGGG	-3.09 ± 0.16	-2.75 ± 0.21
AUUUAGCAAUAUUACGGUCC	-2.72 ± 0.17	-0.126 ± 0.15
UGAGAGCAAUAUUACGUCUC	-1.78 ± 0.38	
GAAUAGCAAUAUUACGCAAG	-2.44 ± 0.17	-1.54 ± 0.15

Sequence	self-splicing fitness (ln) (30 °C)	self-splicing fitness (ln) (37 °C)
GAAAAGCAAUAUUACGACGG	-2.29 ± 0.17	-2.4 ± 0.32
ACGCAGCAAUAUUACGCGCU	-2.24 ± 0.17	-1.31 ± 0.14
UGGAAGCAAUAUUACGAGCU	-1.95 ± 0.16	-0.801 ± 0.15
AGAUAGCAAUAUUACGCGUA	-1.2 ± 0.12	-1.41 ± 0.13
GACUAGCAAUAUUACGCAUC	-3.16 ± 0.17	-2.95 ± 0.22
CGUUAGCAAUAUUACGUUCG	-1.38 ± 0.091	-1.02 ± 0.13
ACUAAGCAAUAUUACGCCGU	-1.86 ± 0.2	-1.64 ± 0.18
AAACAGCAAUAUUACGAUGC	-2.27 ± 0.058	-1.55 ± 0.074
UGGCAGCAAUAUUACGUUCC	-2.02 ± 0.17	-1.09 ± 0.18
CUGCAGCAAUAUUACGAGUA	-2.85 ± 0.23	-2.97 ± 0.28
GAACAGCAAUAUUACGCGAG	-2.2 ± 0.099	-1.32 ± 0.11
GUAGAGCAAUAUUACGUCGG	-1.87 ± 0.15	-1.61 ± 0.22
CUAAAGCAAUAUUACGAAGC		-2.06 ± 0.42
AGCCAGCAAUAUUACGUUGU	-3.58 ± 0.21	-2.01 ± 0.15
UGAAAGCAAUAUUACGCGCA	-0.0804 ± 0.12	0.142 ± 0.15
UUGGAGCAAUAUUACGGUGA	-1.27 ± 0.22	-1.36 ± 0.14
AGCGAGCAAUAUUACGACCU	-0.933 ± 0.15	-0.654 ± 0.15
CGCUAGCAAUAUUACGCGCC	-2.52 ± 0.19	-2.24 ± 0.35
CUUAAGCAAUAUUACGUGUC	-4.45 ± 0.21	-1.8 ± 0.15
CCCAAGCAAUAUUACGGAGG	-1.95 ± 0.22	
GAAUAGCAAUAUUACGGUUC	-3.69 ± 0.17	-3.25 ± 0.33
CUCUAGCAAUAUUACGGUAC	-2.88 ± 0.39	-4.12 ± 0.46
GUAGAGCAAUAUUACGAACG	-2.44 ± 0.22	-1.38 ± 0.2
GUUUAGCAAUAUUACGUGUG	-2.08 ± 0.11	-1.36 ± 0.11
UUAUAGCAAUAUUACGUCGG	-1.58 ± 0.27	-0.309 ± 0.24

Sequence	self-splicing fitness (ln) (30 °C)	self-splicing fitness (ln) (37 °C)
GUUUAGCAAUAUUACGUCGA	-1.43 ± 0.28	-0.62 ± 0.28
UAAAAGCAAUAUUACGAUAG	-0.934 ± 0.078	-0.765 ± 0.088
UUAAAGCAAUAUUACGUGUC	-1.09 ± 0.14	-1.42 ± 0.16
GAAGAGCAAUAUUACGCUCG	-2.32 ± 0.21	-1.37 ± 0.21
CACCAGCAAUAUUACGCUCC	-3.91 ± 0.21	-2.11 ± 0.33
ACGCAGCAAUAUUACGGUGU	-3.81 ± 0.14	-2.29 ± 0.096
CGUGAGCAAUAUUACGAAUC	-2.66 ± 0.2	-2.34 ± 0.28
AUCGAGCAAUAUUACGCUGA		-1.82 ± 0.32
UGAAAGCAAUAUUACGUCAA	-0.68 ± 0.12	-1.31 ± 0.12
CCUUAGCAAUAUUACGCUGG	-1.57 ± 0.18	-2.43 ± 0.3
ACAGAGCAAUAUUACGGCGA	-3.14 ± 0.31	-1.17 ± 0.17
CGUUAGCAAUAUUACGUAGC	-3.37 ± 0.22	-2.68 ± 0.25
UACUAGCAAUAUUACGCCUG	-0.00481 ± 0.11	1.03 ± 0.14
UAACAGCAAUAUUACGCCCA	-0.674 ± 0.12	0.423 ± 0.15
UAAAAGCAAUAUUACGAGGU	-4.31 ± 0.3	-1.59 ± 0.17
UAAUAGCAAUAUUACGUGGG	-2.91 ± 0.3	-3.08 ± 0.27
AGGGAGCAAUAUUACGAAUU		-0.525 ± 0.18
CCAAAGCAAUAUUACGCAAU	-4.04 ± 0.24	-1.46 ± 0.18
CUUCAGCAAUAUUACGCUGA	-2.41 ± 0.17	-2.56 ± 0.29
AAACAGCAAUAUUACGCUUC	-3.6 ± 0.26	-2.35 ± 0.21
UCAGAGCAAUAUUACGCGGC		-3.08 ± 0.4
GGGAAGCAAUAUUACGAUCG	0.00926 ± 0.13	-0.00218 ± 0.13
ACGCAGCAAUAUUACGGAUA	-3.47 ± 0.18	-1.7 ± 0.12
